Molecular target: N-ribosyltransferase from Archaeoglobus veneficus SNP6 (AvNRT) (Archaeoglobus veneficus SNP6)
Assay: AUC; sedimentation velocity; 20 mM Tris-HCl, pH 8, 20 °C, 50,000 x g; profiles recorded at 292 nm; c(s) analysis with SEDFIT

stoichiometry N: 4
Substance: N-ribosyltransferase from Archaeoglobus veneficus SNP6 (AvNRT) (enzyme)
